The values that follow are results of earlier work, collected in paper PMC2818086.

This data set relates to His64. The data set is described as follows: kinetics. Particulars: 25 °C; free enzyme in solution during catalysis (zinc-loaded).

With “Carbonic anhydrase II (HCA II), wild type (Homo sapiens)”, the pKa is reported as 7.2.

Take “Carbonic anhydrase II (HCA II) N62V (Homo sapiens; N62V)”: the pKa is on record as 5.9.

On to “Carbonic anhydrase II (HCA II) N62T (Homo sapiens; N62T)”, for which the pKa was 7.0.

For “Carbonic anhydrase II (HCA II) Y7F (Homo sapiens; Y7F)”, the pKa is 6.0.

Consider “Carbonic anhydrase II (HCA II) N62A (Homo sapiens; N62A)”, for which the pKa is 6.2.

For the substance “Carbonic anhydrase II (HCA II) N62L (Homo sapiens; N62L)”, the pKa is on record as 6.0.

As to “Carbonic anhydrase II (HCA II) N67L (Homo sapiens; N67L)”, the pKa was 7.5.

For the substance “Carbonic anhydrase II (HCA II) N62D (Homo sapiens; N62D)”, the pKa is recorded as 8.4.
